Data reported in PMC5906529, “Conserved Bacterial-Binding Peptides of the Scavenger-Like Human Lymphocyte Receptor CD6 Protect From Mouse Experimental Sepsis” (Frontiers in Immunology, 2018).
Like-named read-outs stand apart in the source and are kept apart here.

Legend:
[1] = molecular target: the molecule itself; test: dynamic light scattering; peptide alone, 10 µg/mL in PBS, 25°C, Zetasizer Nano S; hydrodynamic diameter of the particles in solution
[2] = Endotoxin adsorption on coated Eupergit beads (LAL assay); conditions: peptide/protein immobilized on Eupergit beads, 50 UI/mL LPS, 0–150 min, room temperature, vs HSA- and rshCD5-coated controls, preliminary
Experimental: CD6.PD1 and CD6.PD2 high affinity (and also CD6.PD3) to LPS and LTA makes these peptides suitable candidates for new supportive non-antibiotic strategies against sepsis. One such possibility would be the adsorption of circulating bacterial toxins by CD6-derived peptides covalently coupled to a solid phase. Preliminary results obtained by incubating an endotoxin solution (50 UI/mL LPS) with Eupergit® beads coated with different CD6-derived peptides (CD6.PD2 and CD6.PD3) or proteins (HSA, rshCD5, and rshCD6) for different periods of time support this approach (Figure S2 in Supplementary Material). […]
Supplementary Figure S1. Binding of rshCD6 protein, and CD6 (CD6.PD1, CD6.PD2, and CD6.PD3) and DMBT-1/SAG (pbs1)-derived peptides to LPS and LTA determined by tryptophan fluorescence. […] Peptide samples (with and without either Re-LPS or LTA) and blank samples (Re-LPS or LT A alone) were ex cited at 295 nm, and the emission spectra recorded from 300 to 400 nm. Results are expressed as the change in peptide fluorescence ( ΔF) at the wavelength of the emission maxima (353 nm for the peptides and 337 nm for rshCD6 protein) in the presence and absence of either Re- LPS or LT A. Results are means ± SD of 3 experiments. Peptide fluorescence changes at 353 nm were fitt ed to the Hill equation. […]

[3] = Solid phase binding assay (ELISA); design: species or system E. coli O111:B4; conditions: biotin-labeled peptides/proteins 5–20 µg/mL, overnight 4°C, HRP-streptavidin/TMB, OD 405–620 nm
Experimental: (§1) 96-well microtiter plates (Nunc, Roskilde, Denmark) were coated overnight at 4°C with 5 µg/mL of purified LPS (from E. coli O111:B4, Sigma L2630) or LTA (from S. aureus, Sigma L2515) in PBS and then incubated for 2 h at room temperature in blocking solution (20 mM Tris-HCl pH 7.4 plus 0.05% Tween 20 and 1% BSA). Biotin-labeled peptides/proteins (2.5–20 µg/mL) were added and incubated overnight at 4°C in blocking solution. After extensive washing, bound peptides/proteins were detected by the addition of horseradish peroxidase-labeled streptavidin (1:5,000 dilution; DAKO) for 1 h at room temperature. Color was developed by adding 3,3’,5,5’-tetramethylbenzidine liquid substrate (Sigma) and optical density read at 405–620 nm.
(§2) Figure 3 Analysis of the direct binding characteristics of CD6-derived peptides to purified pathogen-associated molecular patterns (PAMPs) from Gram-negative and Gram-positive origin. […] Following overnight incubation at 4°C bound peptides or proteins were developed by addition of horseradish peroxidase–streptavidin and 3,3’,5,5’-tetramethylbenzidine substrate and further readings at OD 405–620 nm. Results are expressed as mean ± SD of duplicates from one representative experiment of three performed. […] (C) Apparent Kd values and Hill coefficients for the binding of peptides and proteins in study to LPS and LTA determined by tryptophan fluorescence. […]

[4] = Intrinsic (tryptophan) fluorescence binding; design: species or system Salmonella minnesota serotype Re 595; conditions: excitation 295 nm, peptide/protein 10 µg/mL in PBS pH 7.2, Hill equation fit, mean ± SD of three experiments, read-out: Re-LPS Kd ± σ (apparent Kd)
Experimental: (§3) To explore the ability of different peptides/proteins to bind LTA (Mr = 14,000, from S. aureus; Sigma) and rough LPS (Re-LPS, Mr = 2,500, from Salmonella minnesota serotype Re 595; Sigma), binding studies were carried out in an AB2 spectrofluorometer with a thermostated cuvette holder (±0.1°C), using 5 mm × 5 mm path length quartz cuvettes as described ([30]). Re-LPS concentration was assessed by quantification of 2-keto-3-deoxyoctulosonic acid ([31]). Peptide/protein samples (10 µg/mL) were titrated with different amounts of a stock solution of either LTA or Re-LPS in phosphate buffered saline (PBS) pH 7.2, and the Trp fluorescence emission spectra recorded with excitation at 295 nm. The fluorescence intensity readings were corrected for the dilution caused by […]. […] The apparent dissociation constant (Kd) of peptide/protein–ligand complexes were obtained by non-linear least-squares fitting to the Hill equation of the change in peptide fluorescence at 353 nm with the amount of added LTA or Re-LPS ([31]): ΔF/ΔFmax = [L]^n/([L]^n + Kd), where ΔF is the change in fluorescence intensity at 353 nm relative to the intensity of free peptide; ΔFmax is the change in fluorescence intensity at saturating LTA or Re-LPS concentrations; [L] is the molar concentration of free ligand; and n is the Hill coefficient. […]

[5] = Solid phase binding assay (ELISA); design: species or system S. aureus; conditions: biotin-labeled peptides/proteins 5–20 µg/mL, overnight 4°C, HRP-streptavidin/TMB, OD 405–620 nm
Experimental: as §1, §2

[6] = Intrinsic (tryptophan) fluorescence binding; design: species or system S. aureus; conditions: excitation 295 nm, peptide/protein 10 µg/mL in PBS pH 7.2, Hill equation fit, mean ± SD of three experiments, read-out: LTA Kd ± σ (apparent Kd)
Experimental: as §3

Molecule	binding result [1]	Endotoxin levels after incubation with coated beads [2]	Binding to solid-phase bound LPS [3]	Kd [4]	Binding to solid-phase bound LTA [5]	Kd [6]
GQVEVHFRGVW (source: synthetic peptide, manufactured by ProteoGenix (>80% purity)) [CD6.PD3 peptide]	binds					
rshCD6: recombinant soluble human CD6 ectodomain (protein, UniProt P30203 18-402, looked up, extracellular domain, recombinant soluble human CD6 ectodomain) extracellular domain: HPSPAPPDQLNTSSAESELWEPGERLPVRLTNGSSSCSGTVEVRLEASWEPACGALWDSRAAEAVCRALGCGGAEAASQLAPPTPELPPPPAAGNTSVAANATLAGAPALLCSGAEWRLCEVVEHACRSDGRRARVTCAENRALRLVDGGGACAGRVEMLEHGEWGSVCDDTWDLEDAHVVCRQLGCGWAVQALPGLHFTPGRGPIHRDQVNCSGAEAYLWDCPGLPGQHYCGHKEDAGAVCSEHQSWRLTGGADRCEGQVEVHFRGVWNTVCDSEWYPSEAKVLCQSLGCGTAVERPKGLPHSLSGRMYYSCNGEELTLSNCSWRFNNSNLCSQSLAARVLCSASRSLHNLSTPEVPASVQTVTIESSVTVKIENKESRELMLL		reduced endotoxin levels	dose-dependent binding	630 ± 10 nM	dose-dependent binding	11 ± 4 nM
rshCD5: recombinant soluble human CD5 protein, negative control (protein, UniProt P06127 25-372, looked up, extracellular domain, recombinant soluble human CD5 protein, negative control) extracellular domain: RLSWYDPDFQARLTRSNSKCQGQLEVYLKDGWHMVCSQSWGRSSKQWEDPSQASKVCQRLNCGVPLSLGPFLVTYTPQSSIICYGQLGSFSNCSHSRNDMCHSLGLTCLEPQKTTPPTTRPPPTTTPEPTAPPRLQLVAQSGGQHCAGVVEFYSGSLGGTISYEAQDKTQDLENFLCNNLQCGSFLKHLPETEAGRAQDPGEPREHQPLPIQWKIQNSSCTSLEHCFRKIKPQKSGRVLALLCSGFQPKVQSRLVGGSSICEGTVEVRQGAQWAALCDSSSARSSLRWEEVCREQQCGSVNSYRVLDAGDPTSRGLFCPHQKLSQCHELWERNSYCKKVFVTCQDPNP			no significant binding		no significant binding	
